Measurements: US20190203248A1 (Bristol-Myers Squibb, published 2019)
One block for each binder: values may come before it.

Legend:
murine serum albumin [1] = target: T1, murine serum albumin (mouse, UniProt P07724 25-608); assay: SPR (Biacore T100), immobilized MuSA, analyte series 1000 to 62.5 nM, 37 C
T1 construct: also called MuSA; mouse serum albumin
Protocol: (§1) Serum albumins were dissolved in PBS buffer (10 mM sodium phosphate, 130 mM sodium chloride, pH 7.1) to a concentration of 10 mg/ml, and subsequently diluted to 8-10 μg/ml in 10 mM sodium acetate pH 5.0 for immobilization. Serum albumins were immobilized on a Series S CM5 sensor chip using standard ethyl(dimethylaminopropyl) carbodiimide (EDC)/N-hydroxysuccinimide (NHS) chemistry in HBS-EP+ running buffer at 25° C., following general manufacturer guidelines. Flow cell 1 was activated with EDC/NHS and blocked with ethanolamine. […] Kinetic experiments were performed in PBS buffer containing 0.05% tween-20 (running buffer) at either 25° C. or 37° C. […] These samples were injected across flow cells 1-4 for 300 s, with a 420 s dissociation time, at flow rates of 30 μl/min or 60 μl/min to check for mass transfer limitation. All surfaces were regenerated with 2 pulses of 10 mM glycine pH 2.0 at 30 μl/min for 30 s. Raw sensograms were “double-referenced” by subtracting flow cell 1 data from flow cell 2, 3 or 4 data, and then subtracting a separate buffer cycle from each sensogram. The double-referenced sensogram data was fitted to a 1:1 Langmuir model using Biacore T100 Evaluation software version 2.0.2 to determine the association rate constant (ka), the dissociation rate constant (kd), and the equilibrium dissociation constant (KD).

human serum albumin [2] = target: T2, human serum albumin (human, UniProt P02768 25-609); assay: SPR (Biacore T100), HSA immobilized, 25 C, 30 µl/min
T2 construct: also called HSA; HuSA
Protocol: as §1

human β-klotho [3] = target: T3, human β-klotho (human, UniProt Q86Z14 1-1044); assay: cell-based or functional assay
human serum albumin [4] = target: T2, human serum albumin; assay: isothermal titration calorimetry, 37 C, PBS
Protocol: SABA-FGF21 fusion protein plus buffer was placed in the instrument sample cell at a concentration range of 0.4 to 1.0 mg/mL protein. The matching buffer was placed in the reference cell. Concentrations were determined using extinction coefficients calculated from the protein sequences of the pure proteins. The instrument reaction cell was equilibrated at 37° C. […] The resultant thermogram data was fitted using Origin™ evaluation software package (Microcal Inc.) version 2.0.2 to estimate the stochiometry, enthalpy, and equilibrium disassociation constant (KD) of the protein—protein binding reaction.

human serum albumin [5] = target: T2, human serum albumin; assay: SPR (Biacore T100), HSA immobilized, 37 C, 30 µl/min
Protocol: as §1

[6] = target: T4, cynomolgous monkey serum albumin (cynomolgous monkey, UniProt A2V9Z4 25-608); assay: SPR (Biacore T100), CySA immobilized, 37 C, 30 µl/min
T4 construct: also called CySA
T4 sequence (A2V9Z4 25-608 limits assumed): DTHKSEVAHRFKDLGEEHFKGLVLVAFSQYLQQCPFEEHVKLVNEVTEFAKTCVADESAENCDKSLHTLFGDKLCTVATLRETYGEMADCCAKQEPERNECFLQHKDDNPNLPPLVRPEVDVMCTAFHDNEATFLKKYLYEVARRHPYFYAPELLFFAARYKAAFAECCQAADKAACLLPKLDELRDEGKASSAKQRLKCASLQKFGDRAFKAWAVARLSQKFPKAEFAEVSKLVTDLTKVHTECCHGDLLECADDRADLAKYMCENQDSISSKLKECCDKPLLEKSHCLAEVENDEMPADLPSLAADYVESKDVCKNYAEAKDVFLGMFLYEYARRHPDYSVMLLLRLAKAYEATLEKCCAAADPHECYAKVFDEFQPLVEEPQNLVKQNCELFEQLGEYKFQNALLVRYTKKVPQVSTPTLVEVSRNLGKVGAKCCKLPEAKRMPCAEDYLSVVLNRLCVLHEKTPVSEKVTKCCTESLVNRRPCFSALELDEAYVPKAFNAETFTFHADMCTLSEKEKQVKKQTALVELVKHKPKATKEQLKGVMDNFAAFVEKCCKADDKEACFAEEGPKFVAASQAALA
Protocol: as §1

[7] = target: T5, β-klotho of differentiated 3T3-L1 adipocytes (mouse, UniProt Q99N32 1-1043); assay: cell-based or functional assay
T5 sequence (looked up): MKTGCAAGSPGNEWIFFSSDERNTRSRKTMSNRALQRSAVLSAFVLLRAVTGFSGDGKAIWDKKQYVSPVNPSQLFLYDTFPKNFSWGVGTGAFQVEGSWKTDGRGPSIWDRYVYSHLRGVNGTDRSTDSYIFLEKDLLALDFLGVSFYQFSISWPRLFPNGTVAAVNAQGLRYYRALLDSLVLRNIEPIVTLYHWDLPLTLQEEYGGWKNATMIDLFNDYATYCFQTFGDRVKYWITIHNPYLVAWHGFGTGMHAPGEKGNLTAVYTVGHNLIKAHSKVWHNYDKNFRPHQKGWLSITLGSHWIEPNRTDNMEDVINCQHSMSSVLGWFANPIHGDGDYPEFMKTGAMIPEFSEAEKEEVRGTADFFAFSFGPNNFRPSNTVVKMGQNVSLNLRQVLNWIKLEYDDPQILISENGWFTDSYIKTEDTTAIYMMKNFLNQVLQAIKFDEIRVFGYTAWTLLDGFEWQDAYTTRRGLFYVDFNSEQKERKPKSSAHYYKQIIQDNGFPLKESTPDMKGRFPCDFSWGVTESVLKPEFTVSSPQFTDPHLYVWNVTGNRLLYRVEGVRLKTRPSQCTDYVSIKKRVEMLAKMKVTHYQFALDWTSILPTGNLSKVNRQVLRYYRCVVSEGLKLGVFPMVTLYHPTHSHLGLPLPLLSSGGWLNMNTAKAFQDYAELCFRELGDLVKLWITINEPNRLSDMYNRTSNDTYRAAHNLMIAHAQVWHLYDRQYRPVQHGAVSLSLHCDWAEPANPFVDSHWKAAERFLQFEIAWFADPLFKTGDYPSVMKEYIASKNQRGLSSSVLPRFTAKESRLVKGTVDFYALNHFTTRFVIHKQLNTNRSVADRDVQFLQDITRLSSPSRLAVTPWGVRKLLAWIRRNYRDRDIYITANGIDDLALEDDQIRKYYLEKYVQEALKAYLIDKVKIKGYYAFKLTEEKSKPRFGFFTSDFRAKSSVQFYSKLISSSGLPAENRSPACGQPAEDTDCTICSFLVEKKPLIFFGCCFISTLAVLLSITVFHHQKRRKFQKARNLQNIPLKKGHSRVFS

human β-klotho [8] = target: T3, human β-klotho; assay: cell-based or functional assay; remark: listed apart in the source
[9] = target: T4, cynomolgous monkey serum albumin; assay: SPR (Biacore T100), CySA immobilized, 25 C, 30 µl/min
Protocol: as §1

human serum albumin [10] = target: T2, human serum albumin; assay: binding kinetics, HBS-P buffer, 37 C against 25 C
rhesus serum albumin [11] = target: T6, rhesus serum albumin (rhesus, UniProt Q28522 17-600); assay: binding kinetics, HBS-P buffer, 37 C against 25 C
T6 construct: also called RhSA
T6 sequence (Q28522 17-600 limits assumed): as the sequence (A2V9Z4 25-608 limits assumed) above

human serum albumin [12] = target: T2, human serum albumin; assay: binding kinetics, HBS-P buffer, 25 C
rhesus serum albumin [13] = target: T6, rhesus serum albumin; assay: binding kinetics, HBS-P buffer, 25 C
human serum albumin [14] = target: T2, human serum albumin; assay: direct binding ELISA on plate-coated albumin, absorbance 450 nm
Protocol: (§2) For dose response assays, concentrations ranging from 0.1 nM up to 1 μM were used. After washing in PBST to remove unbound Adnectins™, anti-His mAb-HRP conjugate (R&D Systems, MN) diluted 1:2500 in casein block buffer was added to the bound His-tagged Adnectins™ for 1 hour at room temperature. Excess conjugate was removed by washing with PBST and bound Adnectins™ detected using TMB detection reagents (BD Biosciences) according to the manufacturer's instructions.

rat serum albumin = rat serum albumin (rat, UniProt P02770 25-608); assay: as above
Sequence of rat serum albumin (P02770 25-608 limits assumed): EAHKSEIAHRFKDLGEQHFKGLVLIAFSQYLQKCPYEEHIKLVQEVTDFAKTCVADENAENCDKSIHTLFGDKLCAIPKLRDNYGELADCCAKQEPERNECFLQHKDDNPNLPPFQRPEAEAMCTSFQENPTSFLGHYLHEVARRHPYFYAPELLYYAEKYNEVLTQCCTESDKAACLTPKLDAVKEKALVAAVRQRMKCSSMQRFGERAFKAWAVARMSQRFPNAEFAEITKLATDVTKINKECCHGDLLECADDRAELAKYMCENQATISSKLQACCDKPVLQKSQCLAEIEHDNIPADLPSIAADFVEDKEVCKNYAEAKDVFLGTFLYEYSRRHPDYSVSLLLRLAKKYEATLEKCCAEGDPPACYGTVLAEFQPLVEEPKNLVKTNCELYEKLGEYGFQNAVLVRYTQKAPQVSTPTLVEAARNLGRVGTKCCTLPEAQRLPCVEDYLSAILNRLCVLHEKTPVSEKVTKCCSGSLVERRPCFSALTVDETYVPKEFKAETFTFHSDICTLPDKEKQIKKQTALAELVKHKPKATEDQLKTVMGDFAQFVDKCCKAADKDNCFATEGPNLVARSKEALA
Protocol: as §2

murine serum albumin [15] = target: T1, murine serum albumin; assay: as above
Protocol: as §2

human serum albumin [16] = target: T2, human serum albumin; assay: binding kinetics, MES buffer, pH 5.5
rhesus serum albumin [17] = target: T6, rhesus serum albumin; assay: binding kinetics, MES buffer, pH 5.5
human serum albumin [18] = target: T2, human serum albumin; assay: binding kinetics, HBS-P buffer, 25 C; 25 C, HBS-P buffer
human serum albumin [19] = target: T2, human serum albumin; assay: binding kinetics, MES buffer, pH 7.4
rhesus serum albumin [20] = target: T6, rhesus serum albumin; assay: binding kinetics, MES buffer, pH 7.4
human serum albumin [21] = target: T2, human serum albumin; assay: binding kinetics, HBS-P buffer, 37 C
rhesus serum albumin [22] = target: T6, rhesus serum albumin; assay: binding kinetics, HBS-P buffer, 37 C
murine serum albumin [23] = target: T1, murine serum albumin; assay: SPR (Biacore), albumin immobilized on CM5 chip
Protocol: In addition, binding to albumin was carried out under various pH conditions ranging from pH 5.5 to pH 7.4.

rhesus serum albumin [24] = target: T6, rhesus serum albumin; assay: comment in summary table

T1 sequence (P07724 25-608 limits assumed): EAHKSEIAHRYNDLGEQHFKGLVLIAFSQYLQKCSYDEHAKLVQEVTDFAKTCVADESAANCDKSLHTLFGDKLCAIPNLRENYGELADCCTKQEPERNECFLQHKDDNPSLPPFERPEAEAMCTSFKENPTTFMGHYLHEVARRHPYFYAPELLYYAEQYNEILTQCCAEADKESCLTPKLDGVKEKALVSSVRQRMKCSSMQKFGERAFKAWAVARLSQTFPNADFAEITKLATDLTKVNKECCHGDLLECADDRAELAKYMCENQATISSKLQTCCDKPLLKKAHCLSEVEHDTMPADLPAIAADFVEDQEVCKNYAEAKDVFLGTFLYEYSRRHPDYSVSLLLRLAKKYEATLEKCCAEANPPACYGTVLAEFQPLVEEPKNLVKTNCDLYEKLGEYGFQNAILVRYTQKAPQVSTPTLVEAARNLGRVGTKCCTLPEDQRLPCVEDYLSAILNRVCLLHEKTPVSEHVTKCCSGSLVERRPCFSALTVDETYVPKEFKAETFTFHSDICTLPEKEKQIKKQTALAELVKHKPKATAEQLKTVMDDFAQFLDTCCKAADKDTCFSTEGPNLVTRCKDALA

binding result (murine serum albumin [1]): no binding (tested: 1000 nM)
Kd (human serum albumin [2]): 0.098 µM
koff (human serum albumin [2]): 0.000333 s⁻¹
kon (human serum albumin [2]): 3380 M⁻¹ s⁻¹
EC50 (nM), pERK 1/2 assay in HEK β-Klotho expressing stable cells (human β-klotho [3]): 102 nM
Kd (human serum albumin [4]): 0.0038 µM
ΔH (human serum albumin [4]): -64.3 kJ/mol
Kd (human serum albumin [5]): 0.19 µM
koff (human serum albumin [5]): 0.00111 s⁻¹
kon (human serum albumin [5]): 5960 M⁻¹ s⁻¹
Kd [6]: 2.8 µM
koff [6]: 0.0123 s⁻¹
kon [6]: 4440 M⁻¹ s⁻¹
EC50 (nM), pERK assay in 3T3-L1 adipocytes [7]: 11 nM
Fold Activation, pERK assay in 3T3-L1 adipocytes [7]: 1.8 fold
fold shift of potency (EC50) relative to His-tagged FGF21, pERK 1/2 assay (human β-klotho [8]): ~15 fold
Kd [9]: 1.2 µM
koff [9]: 0.0047 s⁻¹
kon [9]: 3930 M⁻¹ s⁻¹
B1: SABA1-FGF21v1 (designed binder)
chain: MGVSDVPRDLEVVAATPTSLLISWHSYYEQNSYYRITYGETGGNSPVQEFTVPYSQTTATISGLKPGVDYTITVYAVYGSKYYYPISINYRTEIEKPSQGSGSGSGSGSGSGSPIPDSSPLLQFGGQVRQRYLYTDDAQQTEAHLEIREDGTVGGAADQSPESLLQLKALKPGVIQILGVKTSRFLCQRPDGALYGSLHFDPEACSFRELLLEDGYNVYQSEAHGLPLHLPGNKSPHRDPAPRGPARFLPLPGLPPALPEPPGILAPQPPDVGSSDPLSMVGPSQGRSPSYAS
notes: Fusion: SABA core 1 with AdNT1 leader and AdCT7 tail, (GS)7 linker, FGF21 core with FNT3 leader and C-terminal S; also called SABA-FGF21v1 fusion; SABA1-FGF21 variant 1

fold increase in affinity at 37 C against 25 C (human serum albumin [10]): ~2 fold
ratio of affinity at 37 C against 25 C (rhesus serum albumin [11]): 0.5 fold
Kd (human serum albumin [12]): 0.0553 µM
koff (human serum albumin [12]): 0.000443 s⁻¹
Kd (rhesus serum albumin [13]): 0.58 µM
koff (rhesus serum albumin [13]): 0.00378 s⁻¹
kon (rhesus serum albumin [13]): 6600 M⁻¹ s⁻¹
EC50 (read off the curve) (human serum albumin [14]): ~0.007 µM
binding result (rat serum albumin): no binding (tested: 1000 nM)
binding result (murine serum albumin [15]): no binding (tested: 1000 nM)
Kd (human serum albumin [16]): 0.0286 µM
koff (human serum albumin [16]): 0.00027 s⁻¹
kon (human serum albumin [16]): 9440 M⁻¹ s⁻¹
Kd (rhesus serum albumin [17]): 0.359 µM
koff (rhesus serum albumin [17]): 0.00272 s⁻¹
kon (rhesus serum albumin [17]): 7570 M⁻¹ s⁻¹
kon (human serum albumin [18]): 8210 M⁻¹ s⁻¹
Kd (human serum albumin [19]): 0.0419 µM
koff (human serum albumin [19]): 0.000388 s⁻¹
kon (human serum albumin [19]): 9260 M⁻¹ s⁻¹
Kd (rhesus serum albumin [20]): 0.479 µM
koff (rhesus serum albumin [20]): 0.00295 s⁻¹
kon (rhesus serum albumin [20]): 6160 M⁻¹ s⁻¹
Kd (human serum albumin [21]): 0.0241 µM
koff (human serum albumin [21]): 0.000815 s⁻¹
kon (human serum albumin [21]): 33800 M⁻¹ s⁻¹
Kd (rhesus serum albumin [22]): 0.977 µM
koff (rhesus serum albumin [22]): 0.0185 s⁻¹
kon (rhesus serum albumin [22]): 18900 M⁻¹ s⁻¹
B2: SABA1.2 (designed binder)
chain: MGVSDVPRDLEVVAATPTSLLISWHSYYEQNSYYRITYGETGGNSPVQEFTVPYSQTTATISGLKPGVDYTITVYAVYGSKYYYPISINYRTEIEDEDEDEDED
notes: also called core 1 10Fn3 comprising an (ED)5 extension

binding result (murine serum albumin [23]): no binding
binding result (rhesus serum albumin [24]): binds
B3: SABA5.1 (designed binder)
chain: MGVSDVPRDLEVVAATPTSLLISWEDDSYYSRYYRITYGETGGNSPVQEFTVPSDLYTATISGLKPGVDYTITVYAVTYDVTDLIMHEPISINYRTEIDKPSQHHHHHH
notes: His6-tagged Adnectin core 5; same BC, DE and FG loops as SABA4
